Measurements reported in the supplement of paper PMC9170038.

Tested on: MS2 coat protein
Experiment: apparent KD of MS2 coat protein; higher = weaker reporter binding
Conditions: Eterna round: R107; input ligand: theophylline 20 uM
How it was run: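 Apparent KD per design is the median of normalised cluster binding-curve fits. Designed RNA switches transcribed on-chip from Illumina sequencing clusters were titrated with SNAP-549-labelled MS2 coat protein in twofold steps from 0.7 or 1.5 nM to 3 µM, with 0.8–1.5 h down to 10–20 min per step. Buffer: 100 mM Tris-HCl pH 7.5, 80 mM KCl, 4 mM MgCl2, without or with constant ligand.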

In order of falling “apparent KD of MS2 coat protein” value:
1. ACGCUGAUUGAUUACAAUCAGCGAAAAGAUACCAGUGGGUAAUCCCACCCUUGGCAGCUUAAACUUGAGGAUCACCCAGGUGGUA [TheoAS 17 #MS2Right #BothOrNeither #AlternativeMS2]  419 nM
2. AAUAAUAGGUGAUCCUGACGAGUGGCAUAACGAGGACCGGUACGGCCGCCACUCGAACAUGAGGAUCACCCAUGUAGCCACUCGA [M'-T'-T-MS2-T'' - Design 5.b]  327 nM
3. GGUAACUCUACGGCCGCCACUGAACAUGAGGAUCACCCAUGUAAUGUUCAGAUUUUUUUUUUUUACAGGACCGGGUAGUGUUACC [Tryptophan B 4]  276 nM
4. UCAGUGCAAGGAAGGAGCGGGUACAUGAGGAUCACCCAUGUGCAAGUGGUGAGCGUCCGUGCCCAGGUAGGUCGCCUAGCCUGGU [Quisso]  180 nM
5. AUCGGCAGAAAAGAUACCAGAGUAAUACACAACAUGAGGAUCACCCAUGUACGGACAAUCCUCCCUUGGCAGCUUGUAACAGUAU [theeternabot_sameState_MS2_Theo_B_32]  63.8 nM
6. UGCGUACAUGAGGAUCACCCAUGUACUGAAGGAGCGGGAGGCAUCUCAGGUAGGUCGCAGACAUGAGGAUCACCCAUGUAGUGGU [Exclusion Arginine A GF 18]  44.6 nM
7. AAAAGAGGUGGAAGGAGCGGGAGACAUGAGGAUCACCCAUGUGAAGUGACGAAAGGAUCAUCCCAGGUAGGUCGCCAUGUCGAAA [csstmullin]  44.6 nM
8. AUACAUGAGGAUCACCCAUGUAUAGUUGAAGGAGCGACCAGAGGGUCAGGUAGGUCGCAGCGCAUGAGGUAAGCCCAUGUAUGCU [#1 Exclusion - Arginine A Attempt #16 (Inspired by Pi)]  44 nM
9. UCGGGCAGAGCGGCCGCCACUGUUUGGCAUGCGGAUGAAGGAACAUGAGGAUCACCCAUGUAGAUUAGGACCGGGCUAGCGGAGA [sscsmullin]  42.1 nM
10. CACAUGAGGAUCACCCAUGUCUGAACUGAAGGAGCGCUAAAUAAGGCAGGUAGGUCGCGGAAUCGUGUGUGCAUAUGCACACGCG [9.U]  35.7 nM
11. UUAGCACAUGAGGAUCACCCAUGUCUCGAUACCAGAUAAGUUCCGAUCCCUUGGCAGCGACAAGCUUGCAAACUGCGACUAUUCU [theeternabot_sameState_MS2_Theo_A_42]  32.2 nM
12. ACGACGCAUAGUGAUACCAGUAGAACAUGAGGAUCACCCAUGUCUGUGACGCACCACCUCUGCCCUUGGCAGCACUAUGCGUCAG [SSTheo B #8]  30.3 nM
13. GGACUAACCAGAAGGAGCGACGCGCAGAAACUGCAAAUUCCUCCACACGAGGAUCACCCGUGUCAGGUAGGUCGCUGGUUAGUCG  23 nM
14. AUACAUGAGGAUCACCCAUGUUAUAGUGAAGGAGCGACAUUUAGGUCAGGUAGGUCGCACUAUUGAAUUAUUAUUCUCAGUUCUU [JR_ExcArginiA_Sub019]  21.8 nM
15. UUAGUAACGACGGCCGCCACUGGAUAUGAACAUGAGGAUCACCCAUGUAGAGAUCCUAGAAUAAACAGGACCGGGUCUGAUAAUA [Exclusion Tryptophane B GF 2]  21.6 nM
16. UGACAUUGCUCAGAUACCAGACAUGAGGAUCACCCAUGUGCCAACGUACAAAUAAUAAAUGUCCCUUGGCAGCUGAGCAAUGUCU [TheoBX 15 #MS2Left #Theo2]  19.9 nM
17. UAUGUCGCCGAAGAUACCAGCCUGGCAAGCAACAUGAGGAUCACCCAUGUAAUUACUUAUGGCCCUUGGCAGCUUCAAAUAGAGC [theeternabot_sameState_MS2_Theo_B_42]  15.5 nM
18. UAUAAUAACUCGGCCGCCACUGGCACAUGAGGAUCACCCAUGUCUAUAUAUAAUAUAUAGUUGCACAGGACCGGGAGAUAUAUAU [Exclusion - Tryptophan B]  12.5 nM
19. ACCCUAGCGAUCGCUCGCUAGGGUGCGGAUACCAGCGAGGUCCAUCGCCCUUGGCAGCCGAACAUGAGGAUCACCCAUGUCGGUA [#1 Same State - Theophylline A Attempt #19 (HarryS)]  11.6 nM

Same assay, conditions: Eterna round: R107; input ligand: theophylline 2 mM

In order of falling “apparent KD of MS2 coat protein” value:
1. AAUAAUAGGUGAUCCUGACGAGUGGCAUAACGAGGACCGGUACGGCCGCCACUCGAACAUGAGGAUCACCCAUGUAGCCACUCGA [M'-T'-T-MS2-T'' - Design 5.b]  685 nM
2. GGUUACUCUACGGCCGCCACUGGGCAUGUAAAUAACAUGAGGAUCACCCAUGUGGAAUAAAAUUACAGGACCGGGUAGUGUAACC [Tryptophan B 22]  352 nM
3. GGCACAUAGUCGGCCGCCACUAGUGGGAAAUGGGAGAACAUGAGGAUCACCCAUGUAUUAUAGCCUAGGACCGGGACUAUGUGCC [Mammoth]  259 nM
4. CGAUAGGGUCAAUACCUAAUCAUAUCUGAAGGAGCGUGGAUAUACACAGGUAGGUCGCAGAAUCACAUGAGGAUCACCCAUGUCC [Same State Arginine A GF13]  154 nM
5. UCAGUGCAAGGAAGGAGCGGGUACAUGAGGAUCACCCAUGUGCAAGUGGUGAGCGUCCGUGCCCAGGUAGGUCGCCUAGCCUGGU [Quisso]  149 nM
6. GGUCCCGUCGGAAGGAGCGACAUGAGGAUCACCCAUGUCUCCCGUUAUGGGAGUUCUUUAGGUCAGGUAGGUCGCCGGCGGGAGC [#1 Exclusion - Arginine B Attempt #15 (Inspired by Omei)]  141 nM
7. AAACGCCACGGAAGGAGCGACAUGAGGAUCACCCAUGUAGAUUUGGCGGAUGCACCCUCCUGUCAGGUAGGUCGCCGUGCGAUAA [XArg-B25]  89 nM
8. AUACAUGAGGAUCACCCAUGUAUAGUUGAAGGAGCGACCAGAGGGUCAGGUAGGUCGCAGCGCAUGAGGUAAGCCCAUGUAUGCU [#1 Exclusion - Arginine A Attempt #16 (Inspired by Pi)]  70 nM
9. GGGUACAUCGCGGCCGCCACUCGUGUAAAUACAUGAGGAUCACCCAUGUCGAUGGAGACAUCGGCGAGGACCGGGUGAUGUACCG  53.5 nM
10. GGACUAACCAGAAGGAGCGGCACGCAGAAACUGCAAAAUCCUCCACACGAGGAUCACCCGUGUCAGGUAGGUCGCUGGUUAGUCG  52.5 nM
11. AUAACAUGAGGAUCACCCAUGUAAGCAGAUACCAGCUAGGAAACUAGCCCUUGGCAGCUGCAAGGUGAUCCUAGGUAUCUGCAAU [(M1)-(M2)-(T1)-(T2)-(M)'-(T)'_Design6]  52.2 nM
12. UCACAUGAGGAUCACCCAUGUAAAGUUGAAGGAGCGAUCAUUAGGUCAGGUAGGUCGCAACACAUGAGGAUCACCCAUGUUGUCC [DOUBLE!!! :-D]  47.1 nM
13. GUGUACAUGAGGAUCACCCAUGUCGAGUUACGAGGACCGGUACGGCCGCCACUCGGCGGCUCGACACGGAUAGCGGUGCGUUGCU [Exclusion - Tryptophan A]  35.4 nM
14. UGUCAUGGAAACAUGACAGGUUCUACCGGUCGAGGACCGGUACGGCCGCCACUCGAUUGGUGGCACAUGAGGAUCACCCAUGUUA [SS Tryp A #15]  30.3 nM
15. UGUAUGUGAUCUGAUACCAGUCCAACUGGUAAAACCUGAGGAUCACCCGGGUAAAAUUGGGACCCUUGGCAGCAGAUCGCAUACU  26 nM
16. UGAUUGAACGGAAGGAGCGUGAAGAGAGAGAAACAUGAGGAUCACCCAUGUAGAGAGAGAUCACAGGUAGGUCGCCGAGAGAUUG [11.C]  21 nM
17. ACAUGAGGAUCACCCAUGUACAUAAGGGAAGGAGCGCGGUGAAACGCAGGUAGGUCGCCCAUAAUAUCUAACAUUAAAUUCAUGU [LeftA3]  20 nM
18. UCGGGCAGAGCGGCCGCCACUGUUUGGCAUGCGGAUGAAGGAACAUGAGGAUCACCCAUGUAGAUUAGGACCGGGCUAGCGGAGA [sscsmullin]  18.4 nM
19. AAGACGGUCGGAAGGAGCGGUACAUGAGGAUCACCCAUGUACCUCUGGGCAUCCGUAGUGUGCCAGGUAGGUCGCCGAUUGCGGG [Esorbevege]  13.5 nM
20. UAUAAUAACUCGGCCGCCACUGGCACAUGAGGAUCACCCAUGUCUAUAUAUAAUAUAUAGUUGCACAGGACCGGGAGAUAUAUAU [Exclusion - Tryptophan B]  10.5 nM
